Source: US7407939B2, “Protein kinase inhibitors comprising ATP mimetics conjugated to peptides or peptidomimetics” (CureGenics Ltd., priority 2001, dated 2008)
pIC50: −log10 of the molar value. Read-outs that look alike come from different tables or passages of the source. *1 amine or outer side, *2 acyl side, *3 side chain or, on linkers, in order; H or OH if unused. Where a SMILES comes first, the peptide text is derived from it. Where no end group is shown, it is not given here. Side-chain parts run from the residue outwards. [ ]: non-standard residue; d: D form. The star is where a group is joined. SO2‑IQ = 5-aminoethylsulfoneamide isoquinoline, O=S(=O)(NCCN*)c1cccc2cnccc12; X1 = 5‑aminoethylsulfonamide isoquinoline, O=S(=O)(NCCN*)c1cccc2cnccc12; Isoquinoline5sulfonyl = O=S(=O)(c1cccc2cnccc12)*; Ethylenediamine = C(CN[*:2])N[*:1]; hLeu = CC(C)CC[C@H](N)C(=O)O; GltNH2 = not defined here; Nle = CCCC[C@H](N)C(=O)O; Orn = NCCC[C@H](N)C(=O)O; Dab = NCC[C@H](N)C(=O)O; Nva = CCC[C@H](N)C(=O)O; Abu = CC[C@H](N)C(=O)O; Dap = NC[C@H](N)C(=O)O; GlyNH2 = aminoglycine; Ava = NCCCCC(=O)O; βAla = NCCC(=O)O

Key:
PKB = molecular target: T1, PKB (Homo sapiens, UniProt P31749); assay: PKB in vitro kinase activity assay (soluble His-HA-PKB / SPA bead screening); format: biochemical; set-up: % Inhibition PKB I / % Inhibition PKB II: concentration or dose not given beside the values; details: for inhibition at 1 µM / PKB-kinase (spa) Assay 1, % inhibition of kinase activity / PKB-kinase (spa) Assay 2, % inhibition of kinase activity: 1 μM compound concentration; for % Inhibition PKB I / % Inhibition PKB II: plate screening, peptide moiety alone
T1 construct: His; HA; made in house

PKA = molecular target: T2, PKA (Bos taurus, UniProt P00517); assay: In vitro PKA kinase activity assay (kemptide / SPA beads); format: biochemical; set-up: % Inhibition PKA: concentration or dose not given beside the values; details: for inhibition at 1 µM / PKA-kinase Assay 1, % inhibition of kinase activity / PKA-kinase Assay 2, % inhibition of kinase activity: 1 μM compound concentration; for % Inhibition PKA: plate screening, peptide moiety alone;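 as to all read-outs here: Cell-free assay of purified PKA catalytic subunit phosphorylating the 7-mer kemptide substrate, run in MOPS buffer with magnesium acetate and BSA, with blank wells lacking enzyme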
T2 construct: purchased Promega

[1] = Assay 1, read-out: PKB-kinase (spa) Assay 1, % inhibition of kinase activity
[2] = Assay 2, read-out: PKB-kinase (spa) Assay 2, % inhibition of kinase activity
[3] = chimeric PTR compounds (peptide conjugated to isoquinoline small molecule), read-out: PKB IC50

T1 sequence (P31749 whole entry, species assumed): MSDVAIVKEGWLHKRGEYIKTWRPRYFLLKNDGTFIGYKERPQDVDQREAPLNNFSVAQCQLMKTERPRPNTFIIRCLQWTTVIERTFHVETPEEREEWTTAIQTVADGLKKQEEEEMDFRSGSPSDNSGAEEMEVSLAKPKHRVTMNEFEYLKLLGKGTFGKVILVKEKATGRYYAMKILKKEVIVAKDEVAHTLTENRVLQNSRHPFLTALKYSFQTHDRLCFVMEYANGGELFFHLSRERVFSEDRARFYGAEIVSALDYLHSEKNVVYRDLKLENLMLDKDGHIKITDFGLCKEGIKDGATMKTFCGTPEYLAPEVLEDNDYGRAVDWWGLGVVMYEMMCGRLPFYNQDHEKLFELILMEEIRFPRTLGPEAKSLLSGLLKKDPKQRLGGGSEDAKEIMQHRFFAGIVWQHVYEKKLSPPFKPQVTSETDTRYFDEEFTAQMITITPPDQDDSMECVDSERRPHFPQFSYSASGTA

| Molecule | PKB-kinase (spa) Assay 1, % inhibition of kinase activity (PKB; Assay 1) [%] | PKB-kinase (spa) Assay 2, % inhibition of kinase activity (PKB; Assay 2) [%] | further results |
| --- | --- | --- | --- |
| CC(C)CC[C@H](NC(=O)[C@H](CCN)NC(=O)[C@H](CCC(=O)NCC(=O)NCCNS(=O)(=O)c1cccc2cnccc12)NC(=O)[C@H](CCCN)NC(=O)[C@H](CCCNC(=N)N)NC(=O)[C@@H]1CCCN1C(=O)[C@@H](N)CCCNC(=N)N)C(N)=O [60020-42, Arg-Pro-Arg-Orn-Glu-(Gly-5-aminoethylsulfonamide)-Dab-Hol] (H-RPR[Orn]E([Gly-Ethylenediamine-Isoquinoline5sulfonyl])[Dab][hLeu]-NH2) | – | – | inhibition at 1 µM (PKB; [1]): 80%; inhibition at 1 µM (PKB; [2]): 86%; pIC50 (PKB; Table 1, most preferred compounds, read-out: IC50 PKB): 6.96; inhibition at 1 µM (PKA; Assay 1, read-out: PKA-kinase Assay 1, % inhibition of kinase activity): 99%; inhibition at 1 µM (PKA; Assay 2, read-out: PKA-kinase Assay 2, % inhibition of kinase activity): 99%; pIC50 (PKA; Table 1, most preferred compounds, read-out: IC50 PKA): 7.30 |
| 60020-37: Arg-Pro-Arg-Dap-Glu(Gly-5-aminoethylsulfonamide isoquinoline)-Ala-Phe (RPR[Dap]E([Gly-X1])AF) | 53 | 44 | PKA-kinase Assay 1, % inhibition of kinase activity (PKA; Assay 1): 98%; PKA-kinase Assay 2, % inhibition of kinase activity (PKA; Assay 2): 99% |
| CCCC[C@H](NC(=O)[C@H](CCCNC(=N)N)NC(=O)[C@@H]1CCCN1C(=O)[C@@H](N)CCCNC(=N)N)C(=O)N[C@@H](CCC(=O)NCCC(=O)NCCNS(=O)(=O)c1cccc2cnccc12)C(=O)N[C@@H](CCC)C(=O)N[C@@H](Cc1ccccc1)C(N)=O [60020-95] (H-RPR[Nle]E([βAla-Ethylenediamine-Isoquinoline5sulfonyl])[Nva]F-NH2; N-terminus assumed) | – | – | inhibition at 1 µM (PKB; [1]): 46%; inhibition at 1 µM (PKB; [2]): 90%; pIC50 (PKB; Table 6, most active compounds from plate TY-60020, read-out: IC50 PKB): 5.48; pIC50 (PKA; Table 6, most active compounds from plate TY-60020, read-out: IC50 PKA): 5.70 |
| 60020-3: Arg-Pro-Arg-Dap-Glu(5-aminoethylsulfonamide isoquinoline)-Orn-Phe (RPR[Dap]E(X1)[Orn]F) | 52 | 60 | PKA-kinase Assay 1, % inhibition of kinase activity (PKA; Assay 1): 96%; PKA-kinase Assay 2, % inhibition of kinase activity (PKA; Assay 2): 96% |
| 60020-60: Arg-Pro-Arg-Nle-Glu(Gly-5-aminoethylsulfonamide isoquinoline)-Orn-Hol (RPR[Nle]E([Gly-X1])[Orn][hLeu]) | 59 | 70 | PKA-kinase Assay 1, % inhibition of kinase activity (PKA; Assay 1): 87%; PKA-kinase Assay 2, % inhibition of kinase activity (PKA; Assay 2): 89% |
| C[C@@H](O)[C@H](NC(=O)[C@H](CCCNC(=N)N)NC(=O)[C@@H]1CCCN1C(=O)[C@@H](N)CCCNC(=N)N)C(=O)N[C@@H](CCC(=O)NCCCCC(=O)NCCNS(=O)(=O)c1cccc2cnccc12)C(=O)N[C@@H](CO)C(=O)N[C@@H](Cc1ccccc1)C(N)=O [compound 6090] (H-RPRTE([Ava-Ethylenediamine-Isoquinoline5sulfonyl])SF-NH2; N-terminus assumed) | – | – | pIC50 (PKB; [3]): 5.25; pIC50 (PKA; chimeric PTR compounds (peptide conjugated to isoquinoline small molecule), read-out: PKA IC50): 6.22 |
| 60005-84 (RPR[Nva]TA[hLeu]) [Compound 60005-84] | – | – | % Inhibition PKB I (PKB): 39%; % Inhibition PKB II (PKB): 48%; % Inhibition PKA (PKA): 7% |
| 60020-36: Arg-Pro-Arg-Dap-Glu(Gly-5-aminoethylsulfonamide isoquinoline)-Orn-Hol (RPR[Dap]E([Gly-X1])[Orn][hLeu]) | 69 | 71 | PKA-kinase Assay 1, % inhibition of kinase activity (PKA; Assay 1): 93%; PKA-kinase Assay 2, % inhibition of kinase activity (PKA; Assay 2): 94% |
| 60020-33: Arg-Pro-Arg-Dap-Glu(Gly-5-aminoethylsulfonamide isoquinoline)-Dab-Phe (RPR[Dap]E([Gly-X1])[Dab]F) | 63 | 69 | PKA-kinase Assay 1, % inhibition of kinase activity (PKA; Assay 1): 98%; PKA-kinase Assay 2, % inhibition of kinase activity (PKA; Assay 2): 98% |
| 60002-88 (RPRT[Abu][Dap]F) [Compound 60002-88] | – | – | % Inhibition PKB I (PKB): 40%; % Inhibition PKA (PKA): −3% |
| 60020-65: Arg-Pro-Arg-Dap-Glu(bAla-5-aminoethylsulfonamide isoquinoline)-Dab-Phe (RPR[Dap]E([βAla-X1])[Dab]F) | 32 | 30 | – |
| 60020-46: Arg-Pro-Arg-Orn-Glu(Gly-5-aminoethylsulfonamide isoquinoline)-Ala-Hol (RPR[Orn]E([Gly-X1])A[hLeu]) | 37 | 57 | – |
| 60020-61: Arg-Pro-Arg-Nle-Glu(Gly-5-aminoethylsulfonamide isoquinoline)-Ala-Phe (RPR[Nle]E([Gly-X1])AF) | 29 | 40 | – |
| 60020-70: Arg-Pro-Arg-Dap-Glu(bAla-5-aminoethylsulfonamide isoquinoline)-Ala-Hol (RPR[Dap]E([βAla-X1])A[hLeu]) | 57 | 68 | – |
| RPRTSDF [TY 60002-18, Arg-Pro-Arg-Thr-Ser-Asp-Phe] | – | – | Activity PKB (PKB; Table 3, linear 7-mer peptides): Not active |
| 60020-78: Arg-Pro-Arg-Orn-Glu(bAla-5-aminoethylsulfonamide isoquinoline)-Ala-Hol (RPR[Orn]E([βAla-X1])A[hLeu]) | 21 | 24 | – |
| 60020-73: Arg-Pro-Arg-Orn-Glu(bAla-5-aminoethylsulfonamide isoquinoline)-Dab-Phe (RPR[Orn]E([βAla-X1])[Dab]F) | 16 | 35 | – |
| 60006-16A (RPR[Nva][GlyNH2][GltNH2][hLeu]; reading uncertain) [Compound 60006-16A] | – | – | % Inhibition PKB I (PKB): 42%; % Inhibition PKB II (PKB): 42% |
| 60020-6: Arg-Pro-Arg-Dap-Glu(5-aminoethylsulfonamide isoquinoline)-Ala-Hol (RPR[Dap]E(X1)A[hLeu]) | 32 | 14 | – |
| 60020-88: Arg-Pro-Arg-Abu-Glu(bAla-5-aminoethylsulfonamide isoquinoline)-Nva-Hol (RPR[Abu]E([βAla-X1])[Nva][hLeu]) | −50 | 31 | – |
| 60020-5: Arg-Pro-Arg-Dap-Glu(5-aminoethylsulfonamide isoquinoline)-Ala-Phe (RPR[Dap]E(X1)AF) | 46 | 26 | – |
| 60020-84: Arg-Pro-Arg-Abu-Glu(bAla-5-aminoethylsulfonamide isoquinoline)-Orn-Hol (RPR[Abu]E([βAla-X1])[Orn][hLeu]) | 10 | 51 | – |
| 60020-26: Arg-Pro-Arg-Nle-Glu(5-aminoethylsulfonamide isoquinoline)-Dab-Hol (RPR[Nle]E(X1)[Dab][hLeu]) | 17 | 18 | – |
| 60020-19: Arg-Pro-Arg-Abu-Glu(5-aminoethylsulfonamide isoquinoline)-Orn-Phe (RPR[Abu]E(X1)[Orn]F) | 32 | 26 | – |
| 60020-76: Arg-Pro-Arg-Orn-Glu(bAla-5-aminoethylsulfonamide isoquinoline)-Orn-Hol (RPR[Orn]E([βAla-X1])[Orn][hLeu]) | 38 | 38 | – |
| 60020-20: Arg-Pro-Arg-Abu-Glu(5-aminoethylsulfonamide isoquinoline)-Orn-Hol (RPR[Abu]E(X1)[Orn][hLeu]) | 11 | 15 | – |
| 60020-86: Arg-Pro-Arg-Abu-Glu(bAla-5-aminoethylsulfonamide isoquinoline)-Ala-Hol (RPR[Abu]E([βAla-X1])A[hLeu]) | −55 | −5 | – |
| 6106 (RPRT[Dap](SO2‑IQ)SF) [compound 6106] | – | – | pIC50 (PKB; [3]): 5.00 |
